Experimental data as given in IntAct's records for PubMed 32066962.

B1: Repressor of RNA polymerase III transcription MAF1 (Saccharomyces cerevisiae), P41910 (parent)
chain: MKFIDELDIERVNQTLNFETNDCKIVGSCDIFTTKAVASDRKLYKTIDQHLDTILQENENYNATLQQQLAAPETNQSPCSSPFYSNRRDSNSFWEQKRRISFSEYNSNNNTNNSNGNSSNNNNYSGPNGSSPATFPKSAKLNDQNLKELVSNYDSGSMSSSSLDSSSKNDERIRRRSSSSISSFKSGKSSNNNYSSGTATNNVNKRRKSSINERPSNLSLGPFGPINEPSSRKIFAYLIAILNASYPDHDFSSVEPTDFVKTSLKTFISKFENTLYSLGRQPEEWVWEVINSHMTLSDCVLFQYSPSNSFLEDEPGYLWNLIGFLYNRKRKRVAYLYLICSRLNSSTGEVEDALAKKPQGKLIIDDGSNEYEGEYDFTYDENVIDDKSDQEESLQ
partner: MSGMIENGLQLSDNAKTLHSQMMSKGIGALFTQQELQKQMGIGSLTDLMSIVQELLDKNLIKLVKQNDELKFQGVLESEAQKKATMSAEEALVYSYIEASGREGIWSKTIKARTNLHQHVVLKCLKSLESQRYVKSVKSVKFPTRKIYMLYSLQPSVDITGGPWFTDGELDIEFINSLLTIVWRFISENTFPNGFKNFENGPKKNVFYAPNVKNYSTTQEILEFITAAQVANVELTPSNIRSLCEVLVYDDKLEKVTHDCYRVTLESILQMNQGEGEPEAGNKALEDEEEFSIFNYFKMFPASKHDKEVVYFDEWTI

Variants of: B1
Settings: with rpc6_yeast RPC34, P32910

effect of a mutation on the interaction | Variant
with no effect | MKFIDELDIERVNQTLNFETNDCKIVGSCDIFEEKAVASDRKLYKTIDQHLDTILQENENYNATLQQQLAAPETNQSPCSSPFYSNRRDSNSFWEQKRRISFSEYNSNNNTNNSNGNSSNNNNYSGPNGSSPATFPKSAKLNDQNLKELVSNYDSGSMSSSSLDSSSKNDERIRRRSSSSISSFKSGKSSNNNYSSGTATNNVNKRRKSSINERPSNLSLGPFGPINEPSSRKIFAYLIAILNASYPDHDFSSVEPTDFVKTSLKTFISKFENTLYSLGRQPEEWVWEVINSHMTLSDCVLFQYSPSNSFLEDEPGYLWNLIGFLYNRKRKRVAYLYLICSRLNSSTGEVEDALAKKPQGKLIIDDGSNEYEGEYDFTYDENVIDDKSDQEESLQ [T33E;T34E]
disrupting interaction strength | MKFIDELDIERVNQTLNFETNDCKIVGSCDIFTTKAVASDRKLYKTIDQHLDTILQENENYNATLQQQLAAPETNQSPCSSPFYSNRRDSNSFWEQKRRISFSEYNSNNNTNNSNGNSSNNNNYSGPNGSSPATFPKSAKLNDQNLKELVSNYDSGSMSSSSLDSSSKNDERIRRRSSSSISSFKSGKSSNNNYSSGTATNNVNKRRKSSINERPSNLSLGPFGPINEPSSRKIFAYLIAILNASYPAHAFSSVEPTDFVKTSLKTFISKFENTLYSLGRQPEEWVWEVINSHMTLSDCVLFQYSPSNSFLEDEPGYLWNLIGFLYNRKRKRVAYLYLICSRLNSSTGEVEDALAKKPQGKLIIDDGSNEYEGEYDFTYDENVIDDKSDQEESLQ [D248A;D250A]
with no effect | MKFIDELDIERVNQTLNFETNDCKIVGSCDIFTTKAVASDRKLYKTIDQHLDTILQENENYNATLQQQLAAPETNQSPCSSPFYSNRRDSNSFWEQKRRISFSEYNSNNNTNNSNGNSSNNNNYSGPNGSSPATFPKSAKLNDQNLKELVSNYDSGSMSSSSLDSSSKNDERIRRRSSSSISSFKSGKSSNNNYSSGTATNNVNKRRKSSINERPSNLSLGPFGPINEPSSRKIFAYLIAILNASYPDHDFSSVEPTDFVKTSLKTFISKFENTLYSLGRQPEEWVWEVINSHMTLSDCVLFQYSPSNSFLEDEPGYSSNLIGFLYNRKRKRVAYLYLICSRLNSSTGEVEDALAKKPQGKLIIDDGSNEYEGEYDFTYDENVIDDKSDQEESLQ [L318S;W319S]
